According to paper PMC8406286, “A Recently Assembled Degradation Pathway for 2,3-Dichloronitrobenzene in Diaphorobacter sp. Strain JS3051” (mBio, 2021):

Columns and labels:
Details in all cases: 50 mM Tris-HCl pH 8.0, 25°C
[1] = substrate: Oc1ccccc1O; assay: spectrophotometric ring-cleavage assay, A260; format: biochemical, Diaphorobacter sp. JS3051
[2] = substrate: Cc1cccc(O)c1O; assay: spectrophotometric ring-cleavage assay, A260; format: biochemical, Diaphorobacter sp. JS3051
[3] = substrate: Cc1ccc(O)c(O)c1; assay: spectrophotometric ring-cleavage assay, A260; format: biochemical, Diaphorobacter sp. JS3051
[4] = substrate: Oc1ccc(Cl)c(Cl)c1O; assay: purified protein
[5] = substrate: Oc1cccc(Cl)c1O; assay: purified protein
[6] = substrate: Oc1ccc(Cl)cc1O; assay: purified protein

B1: H6-DccA (Diaphorobacter sp. JS3051) (protein)
chain: MDKRVAEVAGAIVEAVRKILLDKRVTEAEYRAGVDYLTEVAQTRETAVLLDAFLNSTIIEGKAQRSRTSAPGMQGPYFLEGAPVVEGVLKTYDTDDHKPLIIRGTVRSDTGELLAGAVIDVWHSTPDGLYSGIHDNIPMDYYRGKLVTDSQGNFRVRTTMPVPYQIPYEGPTGRLLGHLGSHTWRPAHVHFKVRKDGFEPLTTQYYFEGGKWVDDDCCHGVTPDLITPETIEDGVRVMTLDFVIEREQAEQRKSATETVA
notes: full-length gene in pET-28a(+) (NdeI/BamHI), N-terminal 6xHis tag, purified from E. coli BL21(DE3)
Km [1]: 9.06 ± 0.88 µM
Vmax [1]: 0.44 µM/min
kcat [1]: 0.363 s⁻¹
kcat/Km [1]: 40000 M⁻¹ s⁻¹
Km [2]: 12.85 ± 1.52 µM
Vmax [2]: 0.63 µM/min
kcat [2]: 0.525 s⁻¹
kcat/Km [2]: 41700 M⁻¹ s⁻¹
Km [3]: 10.40 ± 1.35 µM
Vmax [3]: 4.63 µM/min
kcat [3]: 3.86 s⁻¹
kcat/Km [3]: 372000 M⁻¹ s⁻¹
Km [4]: 0.48 ± 0.10 µM
Vmax [4]: 0.43 µM/min
kcat [4]: 0.355 s⁻¹
kcat/Km [4]: 737000 M⁻¹ s⁻¹
Km [5]: 2.58 ± 0.38 µM
Vmax [5]: 0.42 µM/min
kcat [5]: 0.35 s⁻¹
kcat/Km [5]: 135000 M⁻¹ s⁻¹
Km [6]: 0.73 ± 0.06 µM
Vmax [6]: 0.78 µM/min
kcat [6]: 0.653 s⁻¹
kcat/Km [6]: 893000 M⁻¹ s⁻¹
